Measured values taken from article PMC7652416.

Key:
[1] = molecular target: E. coli ClpX^∆N (residues 62–424) (E. coli) (UniProt P0A6H1)
[2] = molecular target: ClpX^ΔN (residues 62–424) T199S mutant (E. coli) (UniProt P0A6H1)
[3] = molecular target: ClpX^ΔN (residues 62–424) T199V mutant (E. coli) (UniProt P0A6H1)

With GFP-ssrA the KM of GFP-ssrA degradation by ClpX^∆N/ClpP (Michaelis-Menten fit) [1] was 1.3 µM, the KM of GFP-ssrA degradation by ClpX^∆N variant/ClpP (Michaelis-Menten fit) [2] was 6.3 µM and the KM of GFP-ssrA degradation by ClpX^∆N variant/ClpP (Michaelis-Menten fit) [3] was 89 µM.
